Among the data in US20240109974A1 (SHANDONG SIMCERE BIOPHARMACEUTICAL, published 2024) are Kd, koff and kon values, retold here.

T1: Human TNFR2-His (Sino 10417-H08H) (human, UniProt P20333 23-257)
T1 construct: Bought protein; also called recombinant human TNFR2 protein; not shown: His tag
T1 sequence (looked up): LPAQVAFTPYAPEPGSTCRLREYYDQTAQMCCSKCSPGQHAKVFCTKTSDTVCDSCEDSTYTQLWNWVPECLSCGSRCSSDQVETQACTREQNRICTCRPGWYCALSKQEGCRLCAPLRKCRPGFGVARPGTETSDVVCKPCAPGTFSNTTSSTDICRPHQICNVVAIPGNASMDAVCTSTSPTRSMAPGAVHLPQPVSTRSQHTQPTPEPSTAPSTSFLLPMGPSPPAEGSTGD

B1: 224-WT (antibody, V domains shown)
VH: EVQLQESGPEIVKPGASVKLSCTASGFNNKDIYMHWVKQRPEQGLEWIGRIDPATGNTKHDPKFQDKATLSSDTSSNTAYLQFSSLTSEDTAVYYCAHSPYGDFGAMDYWGQGTTVTVSS
VL: DIQMTQSPAIMSASLGERVTMTCTASSSVSSNYLHWYQQKPGSSPKLWIYSTSNLPSGVPARFSGSGSGTSYSLTISSMEAEDAATYYCHQYHRSPWTFGGGTKLEIK
notes: Human-murine chimeric wild-type molecule; also called human-murine chimeric antibody WT of #224
B2: 001-WT (antibody, V domains shown)
VH: EVQLQESGGGLVQPGGSLNLSCAASGFAFSTYDLSWVRQTPEKRLEWVAYINNGGISTYYSDTVKGRFTISRDNAKNTLYLQMSSLKSEDTAMYYCVRGPFYGSANYFDYWGQGTTVTVSS
VL: EIVMTQSPASLSLSVGETVTITCRTSESIYSNLPWYQQKQGKSPQLLVYDATKLAEGVPSRFSGSESGTQYSLKINSLQSEDFGTYYCQHFWVTPWTFGGGTKLEIK
notes: Human-murine chimeric wild-type molecule; also called human-murine chimeric antibody WT of #001
B3: 219-WT (antibody, V domains shown)
VH: EVQLQESGAELVRPGASVKLSCKASGYSFTNYWMNWVKQRPGQGLEWIGMIHPSDTETRLNQNFKDKATLTVDKSSSTSYMQLSSPTSEDSAVYYCARGEGLGAARSVSMDYWGQGTTVTVSS
VL: DILMTQSPSSLSASLGDRVTISCRASQDISNYLNWYQQKPDGTVKVLIYYTAILHSGVPSRFSGSGSGTDYSLTISNLEQEDIATYFCQQGNTLPWTFGGGTKLEIK
notes: Human-murine chimeric wild-type molecule

In general, Kd refers to a measure of binding affinity in units of concentration. As usually defined, the koff is a measure of how fast the partners let go of each other. A lower koff goes with slow dissociation. Usually kon stands for the second-order rate constant of association.

The assay addresses T1, Human TNFR2-His (Sino 10417-H08H). As to the kind of experiment: SPR (Biacore T200), antibody captured on Protein A chip. The method, then:
Biacore was used to detect the specific binding of a test anti-TNFR2 antibody to human and cynomolgus monkey TNFR2 proteins. In this experiment, a Protein A chip was used, the time required for the chip to capture the diluted antibody was determined by manual run, so that the Rmax of the saturated binding to an antigen was 50 RU. […] The affinity of an antibody for an antigen was determined by using multi-cycle dynamics. In each cycle, an antibody was injected and then a TNFR2 protein at a gradient concentration was injected, so that the antigen and the antibody underwent binding and dissociation processes. After each cycle, the Protein A chip was regenerated with Glycine pH 1.5 (removing the protein on the chip). The affinity KD of an antibody and an antigen was fitted with BIAcore T200 analysis software.
(In general: In SPR one partner is held on a chip, and binding of the other changes the refractive index at the surface.)
B1: binding was characterised by a dissociation constant (Kd) of 2.33 nM, the koff came out at 0.000405 s⁻¹ and the kon was found to be 174000 M⁻¹ s⁻¹.
Taken in the same sequence, the figures for B2 were 0.235 nM, 0.000121 s⁻¹ and 512000 M⁻¹ s⁻¹.
Molecule B3 returned a Kd of 0.554 nM, a koff of 0.000192 s⁻¹ and a kon of 346000 M⁻¹ s⁻¹.
